This data set can be described thus: self-splicing fitness, log relative to wild type (ln ratio); higher = more splicing; Tetrahymena group I intron in knt gene, E. coli kanamycin selection, DiMSum; sequences stand for … in CUCUCU…GGAGGGAAAAGUUAUCAGGCAUGCACCUGGUAGCUAGUCUUUAAACCAAUAGAUUGCAUCGGUUUAAAAGGCAAGACCGUCAAAUUGCGGGAAAGGGGUCAACAGCCGUUCAGUACCAAGUCUCAGGGGAAACUUUGAGAUGGCCUUGCAAAGGGUAUGGUAAUAAGCUGACGGACAUGGUCCUAACCACGCAGCCAAGUCCUAAGUCAACAGAUCUUCUGUUGAUAUGGAUGCAGUUCACAGACUAAAUGUCGGUCGGGGAAGAUGUAUUCUUCUCAUAAGAUAUAGUCGGACCUCUCCUUAAUGGGAGCUAGCGGAUGAAGUGAUGCAACACUGGAGCCGCUGGGAACUAAUUUGUAUGCGAAAGUAUAUUGAUUAGUUUUGGAGUACUCGUGGUCG
The gist of the method:
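The eight P1ex-region nucleotides of an intron in the knt kanamycin-resistance gene on pET-22b(+) were all randomised and the library put into E. coli BL21(DE3). Six replicate transformations were grown overnight at 37°C or 30°C on LB agar with or without 25 μg/mL kanamycin, together with 100 μg/mL carbenicillin, 50 μM IPTG and 0.2% rhamnose. Colonies were pooled and amplicon-sequenced on an Illumina HiSeq 2500. Fitness from DiMSum is the error-weighted combination of wild-type-normalised replicate fold changes, kanamycin over none.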

± gives the uncertainty stated by the source.

On to CCGUAGCAAUAUUACGCUCA, for which the “self-splicing fitness (ln)” value (37 °C) is -2.36 ± 0.26.
AAUUAGCAAUAUUACGGGUU: the “self-splicing fitness (ln)” value is -1.4 ± 0.12 (30 °C) and -0.955 ± 0.12 (37 °C).
In the case of CUUGAGCAAUAUUACGCGAA, the “self-splicing fitness (ln)” value (30 °C) was -3.53 ± 0.4.
With UUUUAGCAAUAUUACGCACU, the “self-splicing fitness (ln)” value was -0.447 ± 0.12 (30 °C) and -0.218 ± 0.15 (37 °C).
On the same counts, the results for CAGUAGCAAUAUUACGUACA are -1.46 ± 0.14 and -1.83 ± 0.16.
On the same counts, the results for AAUGAGCAAUAUUACGUGUA are -3.35 ± 0.23 and -2.56 ± 0.21.
In the case of CGAUAGCAAUAUUACGCGGC, the “self-splicing fitness (ln)” value (30 °C) is -2.93 ± 0.41.
Consider UAUGAGCAAUAUUACGCGGG, for which the “self-splicing fitness (ln)” value reads like this: (30 °C) -2.75 ± 0.3; (37 °C) -1.6 ± 0.23.
For CUUCAGCAAUAUUACGCCGC, in that order: -3.14 ± 0.37 and -2.43 ± 0.35.
On the same counts, the results for AACAAGCAAUAUUACGUAAU are -1.98 ± 0.074 and -0.78 ± 0.08.
For GGCUAGCAAUAUUACGGCGA, in that order: -0.177 ± 0.13 and 0.0471 ± 0.14.
As for GCGUAGCAAUAUUACGGCUG, the “self-splicing fitness (ln)” value reads like this: (30 °C) -3.74 ± 0.42; (37 °C) -1.39 ± 0.49.
On to CCUAAGCAAUAUUACGCUGC, for which the “self-splicing fitness (ln)” value (37 °C) is -3.02 ± 0.34.
With GUAGAGCAAUAUUACGGGGU, the “self-splicing fitness (ln)” value runs as follows: (30 °C) -3.18 ± 0.2; (37 °C) -2.07 ± 0.15.
For AGGUAGCAAUAUUACGGAUG, in that order: -3.698 ± 0.028 and -2.39 ± 0.037.
For GCUUAGCAAUAUUACGACAC, in that order: -0.819 ± 0.21 and -0.721 ± 0.16.
As to GUGCAGCAAUAUUACGUCAC, the “self-splicing fitness (ln)” value (37 °C) is -2.14 ± 0.21.
Consider GAACAGCAAUAUUACGCUAA, for which the “self-splicing fitness (ln)” value runs as follows: (30 °C) -1.13 ± 0.062; (37 °C) -0.958 ± 0.075.
Turning to CUCGAGCAAUAUUACGUUAU, the “self-splicing fitness (ln)” value runs as follows: (30 °C) -3.99 ± 0.36; (37 °C) -2.72 ± 0.3.
For CGUCAGCAAUAUUACGGACG, in that order: -3.63 ± 0.32 and -1.95 ± 0.23.
In the case of CACGAGCAAUAUUACGGGCA, under “30 °C”, the “self-splicing fitness (ln)” value was -2.84 ± 0.31.
Take UAGUAGCAAUAUUACGUGAG: the “self-splicing fitness (ln)” value reads like this: (30 °C) -1.3 ± 0.074; (37 °C) -1.87 ± 0.12.
As for GAUAAGCAAUAUUACGCGUA, the “self-splicing fitness (ln)” value reads like this: (30 °C) -0.996 ± 0.14; (37 °C) -0.968 ± 0.16.
On the same counts, the results for UCUCAGCAAUAUUACGCCAG are -1.94 ± 0.25 and -1.2 ± 0.34.
As for AAACAGCAAUAUUACGUGGA, the “self-splicing fitness (ln)” value reads like this: (30 °C) -3.1 ± 0.14; (37 °C) -1.95 ± 0.1.
For CACUAGCAAUAUUACGAAGA, in that order: -3.05 ± 0.24 and -2.27 ± 0.2.
On the same counts, the results for CUGGAGCAAUAUUACGGGGG are -2.27 ± 0.26 and -1.89 ± 0.4.
On the same counts, the results for CUAAAGCAAUAUUACGGGGC are -2.86 ± 0.36 and -2.78 ± 0.28.
As to AGACAGCAAUAUUACGACAC, the “self-splicing fitness (ln)” value is, setting by setting: (30 °C) -1 ± 0.11; (37 °C) -0.662 ± 0.14.
Turning to CGCUAGCAAUAUUACGCGAA, the “self-splicing fitness (ln)” value (37 °C) was -2.95 ± 0.43.
On to GCAGAGCAAUAUUACGAAUG, for which, where the note is “30 °C”, the “self-splicing fitness (ln)” value is -2.71 ± 0.35.
Consider ACUUAGCAAUAUUACGUUCC, for which the “self-splicing fitness (ln)” value runs as follows: (30 °C) -2.16 ± 0.31; (37 °C) -2.04 ± 0.44.
On the same counts, the results for CGAUAGCAAUAUUACGAUAA are -3.37 ± 0.27 and -2.2 ± 0.35.
On the same counts, the results for UUACAGCAAUAUUACGGAAC are -2.88 ± 0.26 and -1.88 ± 0.42.
For GGCCAGCAAUAUUACGGGUC, in that order: -3.65 ± 0.26 and -2.41 ± 0.23.
Turning to CUUUAGCAAUAUUACGCAGC, where the note is “37 °C”, the “self-splicing fitness (ln)” value is -2.27 ± 0.33.
As for GAUUAGCAAUAUUACGACGU, the “self-splicing fitness (ln)” value (30 °C) is -0.442 ± 0.063 and the “self-splicing fitness (ln)” value (37 °C) is 0.93 ± 0.089.
On to CACGAGCAAUAUUACGCGCG, for which the “self-splicing fitness (ln)” value (30 °C) was -2.9 ± 0.24 and the “self-splicing fitness (ln)” value (37 °C) was -1.25 ± 0.18.
For AGAUAGCAAUAUUACGGCCU, in that order: -0.604 ± 0.11 and 0.606 ± 0.14.
On the same counts, the results for CGUUAGCAAUAUUACGCUGG are -1.45 ± 0.28 and -1.83 ± 0.31.
For AACCAGCAAUAUUACGUCAG, in that order: -2.3 ± 0.079 and -1.49 ± 0.086.
Take AAGUAGCAAUAUUACGUUCC: the “self-splicing fitness (ln)” value was -1.67 ± 0.16 (30 °C) and -0.678 ± 0.16 (37 °C).
On the same counts, the results for GACUAGCAAUAUUACGCCUA are -0.114 ± 0.18 and -0.547 ± 0.15.
On the same counts, the results for GUGAAGCAAUAUUACGCAAG are -0.985 ± 0.09 and 0.0285 ± 0.1.
For CUUUAGCAAUAUUACGUUCG, in that order: -1.09 ± 0.13 and 0.499 ± 0.17.
With UGCCAGCAAUAUUACGAGAU, the “self-splicing fitness (ln)” value (30 °C) is -3.75 ± 0.26 and the “self-splicing fitness (ln)” value (37 °C) is -2.32 ± 0.21.
For AGAGAGCAAUAUUACGAUGG, the “self-splicing fitness (ln)” value is, setting by setting: (30 °C) -4.56 ± 0.36; (37 °C) -1.17 ± 0.29.
Turning to AGCGAGCAAUAUUACGAAGG, the “self-splicing fitness (ln)” value (30 °C) was -4.58 ± 0.26 and the “self-splicing fitness (ln)” value (37 °C) was -2.09 ± 0.15.
On the same counts, the results for UACUAGCAAUAUUACGCCAG are -0.0426 ± 0.17 and -1.03 ± 0.29.
For GAGGAGCAAUAUUACGGGAC, in that order: -2.42 ± 0.27 and -2.41 ± 0.27.
For AUGAAGCAAUAUUACGAUUG, in that order: -2.6 ± 0.13 and -1.24 ± 0.14.
For the sequence CCUAAGCAAUAUUACGCCUG, the “self-splicing fitness (ln)” value was -3.62 ± 0.3 (30 °C) and -2.27 ± 0.3 (37 °C).
Regarding CGUGAGCAAUAUUACGUCUU, the “self-splicing fitness (ln)” value (30 °C) is -2.26 ± 0.27.
For UAGCAGCAAUAUUACGAACG, the “self-splicing fitness (ln)” value is -0.486 ± 0.06 (30 °C) and 0.327 ± 0.085 (37 °C).
For CGGUAGCAAUAUUACGGUAU, in that order: -3.77 ± 0.22 and -2.31 ± 0.22.
On the same counts, the results for CUCCAGCAAUAUUACGGAUC are -1.86 ± 0.099 and -1.47 ± 0.14.
On the same counts, the results for UCGAAGCAAUAUUACGCUAG are -2.16 ± 0.14 and -0.234 ± 0.14.
Turning to UUAGAGCAAUAUUACGGUGU, the “self-splicing fitness (ln)” value is -2.05 ± 0.35 (30 °C) and -2.19 ± 0.3 (37 °C).
Take CUUAAGCAAUAUUACGAUAA: under “37 °C”, the “self-splicing fitness (ln)” value was -3.18 ± 0.35.
With CGCUAGCAAUAUUACGAUUU, the “self-splicing fitness (ln)” value was -3.41 ± 0.2 (30 °C) and -1.42 ± 0.12 (37 °C).
With AUUGAGCAAUAUUACGCCGC, for the setting “30 °C”, the “self-splicing fitness (ln)” value was -2.67 ± 0.49.
On to AACUAGCAAUAUUACGAGAA, for which the “self-splicing fitness (ln)” value reads like this: (30 °C) -2.64 ± 0.48; (37 °C) -1.71 ± 0.22.
For UAUAAGCAAUAUUACGACGA, in that order: -0.51 ± 0.14 and -1.36 ± 0.15.
For UAGUAGCAAUAUUACGACAU, in that order: -2.049 ± 0.018 and -0.934 ± 0.034.
For CCACAGCAAUAUUACGGUCA, in that order: -3.27 ± 0.21 and -3.22 ± 0.34.
As for UCCGAGCAAUAUUACGCUGU, the “self-splicing fitness (ln)” value by setting is: (30 °C) -3.1 ± 0.19; (37 °C) -0.655 ± 0.16.
On the same counts, the results for CCACAGCAAUAUUACGCCUU are -3.21 ± 0.17 and -1.59 ± 0.14.
As for UUUCAGCAAUAUUACGAGGG, the “self-splicing fitness (ln)” value is -3.94 ± 0.25 (30 °C) and -1.02 ± 0.13 (37 °C).
For AGGAAGCAAUAUUACGUUAG, in that order: -2.95 ± 0.21 and -3.24 ± 0.29.
Consider AAUCAGCAAUAUUACGGUUC, for which the “self-splicing fitness (ln)” value (30 °C) is -2.32 ± 0.11 and the “self-splicing fitness (ln)” value (37 °C) is -1.91 ± 0.17.
For GACAAGCAAUAUUACGGCAG, in that order: -4.14 ± 0.31 and -3.08 ± 0.35.
Turning to GCUUAGCAAUAUUACGCGAC, the “self-splicing fitness (ln)” value was -3.07 ± 0.29 (30 °C) and -1.73 ± 0.2 (37 °C).
For UGUUAGCAAUAUUACGAUCU, in that order: -0.736 ± 0.088 and -0.148 ± 0.12.
For GAGGAGCAAUAUUACGUGUG, in that order: -2.33 ± 0.22 and -2.54 ± 0.26.
On the same counts, the results for UCGCAGCAAUAUUACGGGAA are -2.44 ± 0.15 and -1.49 ± 0.13.
Turning to UUAGAGCAAUAUUACGUGAU, the “self-splicing fitness (ln)” value by setting is: (30 °C) -3.95 ± 0.28; (37 °C) -2.52 ± 0.22.
On the same counts, the results for CUCCAGCAAUAUUACGAAGG are -3.5 ± 0.32 and -2.13 ± 0.23.
On the same counts, the results for CUGCAGCAAUAUUACGAUCG are -0.0275 ± 0.073 and 0.558 ± 0.1.
On the same counts, the results for UAUGAGCAAUAUUACGUCAU are -3.16 ± 0.2 and -2.38 ± 0.23.
